# Legend:
# Human PSGL-1-Fc (human) = Human PSGL-1-Fc (human) (UniProt Q14242); assay: ELISA; binding curves of the VISTA-Fc mutants E125A and F62A (Supplementary Fig. S6D, S6E); conditions not given
# hVSIG3-Fc (human) = hVSIG3-Fc (human) (UniProt Q5DX21); assay: as above
# hVSIG3-Fc (human), sequence (Q5DX21 23-241): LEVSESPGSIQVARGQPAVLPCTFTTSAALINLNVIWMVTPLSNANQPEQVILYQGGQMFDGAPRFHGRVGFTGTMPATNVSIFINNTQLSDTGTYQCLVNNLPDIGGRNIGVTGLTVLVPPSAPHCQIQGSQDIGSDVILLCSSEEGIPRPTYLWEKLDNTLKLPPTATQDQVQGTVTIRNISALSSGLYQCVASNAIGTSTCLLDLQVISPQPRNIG
# Human PSGL-1-Fc (human), sequence (Q14242 42-320): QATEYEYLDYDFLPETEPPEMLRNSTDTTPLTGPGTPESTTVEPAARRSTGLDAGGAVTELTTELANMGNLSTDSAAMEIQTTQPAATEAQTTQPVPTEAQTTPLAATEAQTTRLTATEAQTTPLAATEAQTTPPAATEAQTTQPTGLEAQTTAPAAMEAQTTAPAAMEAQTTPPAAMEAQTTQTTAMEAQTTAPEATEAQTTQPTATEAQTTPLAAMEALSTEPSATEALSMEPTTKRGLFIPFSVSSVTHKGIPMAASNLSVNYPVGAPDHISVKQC
fold affinity over the WT VISTA interaction (Human PSGL-1-Fc (human)),fold affinity over the WT VISTA interaction (hVSIG3-Fc (human)),Substance
> 2 fold,,soluble hVISTA-Fc E125A (Fc fusion)
,> 2 fold,soluble hVISTA-Fc F62A (Fc fusion)

# Source: PMC7494997
